Results reported in paper PMC5675595.

B1: FLAG-tagged IRAK2 WT [mouse] / ALYREF [human (endogenous in IL1R-293 and HeLa)] (parent)
chain 1: MACYIYQLPSWVLDDLCRNIDTLSEWDWMQFASYVITDLTQLRKIKSMERVQGVSITRELLWWWSMRQATVQQLVDLLCHLELYRAAQIVLSWKPVPESTSPLPAFPEAVKPGAVATSRRNLKDEQEKVRPVKPRSLLDTGPIMAGAQRQRPCEMDAPCSLKTDAPDSPQSKYCSTSTSAPKQERLLGLPGDRLFWSEADVVQATEDFDQSHRISEGTFADIYQGQRNGVAFAFKKLREVAGSSPGSMDRFLQAEMQLCLRCCHANVLPLLGFCTGRQFHSLIYPYMANGSLHDRLWAQGNSDMLPWPQRASICSGLLLAVEHLHSLDIIHSNVKSANVLLDQHLNPKLAHPVAHPHPDNKKTKYTVMRTHLFQASAAYLPEHFIRVGQLTKQVDIFSCGIVLAEVLTGIPAMDKDRSPVYLKDLLLSEIPNSTSSVCSRKTSMGKAVVKEICQRHVEKRAGLLPEACEEAWATAVSVCLRRRNASVEEARVSLAGVEEQLRGQLSLPWSRVSEATGSSSNTPEETDDVDNSSLSVPSLVMMASCPGAASSPLFTGHGAAQPSTSGRQEADSSSEACTGPQTPQNATETSWKIEINEAKRRLMENIVLYKEERLDSSELFGP
chain 2: not shown

Variants of: B1
Test: proximity ligation assay (PLA)
Conditions: with ALYREF [human (endogenous in IL1R-293 and HeLa)]; Hela cells transfected; Mouse anti-ALYREF and Rabbit anti-FLAG antibody; read off a plot

| response (% PLA positive cells) | Variant |
| --- | --- |
| 0.6 | chain 1 K361A K362A K364A |
| 0.2 | chain 1 K235A K236A |
| 0.45 | chain 1 K123R K182R K592R |
